T1: Recombinant Cynomolgus IL-13 Protein, His Tag (SINO BIOLOGICAL, Cat. 11057-C07H) (cynomolgus monkey, UniProt Q5I6E4 19-132 (Macaca thibetana entry))
T1 construct: also called Cyno IL-13; cynomolgus monkey IL-13
T1 chain: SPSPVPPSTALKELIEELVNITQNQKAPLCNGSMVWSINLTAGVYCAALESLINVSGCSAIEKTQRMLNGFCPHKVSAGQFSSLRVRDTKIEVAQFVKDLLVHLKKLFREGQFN

B1: Construct 128 (antibody, human IgG4, kappa)
heavy: QVTLRESGPALVKPTQTLTLTCTVSGFSLSAYSVNWIRQPPGKALEWLAMIWGDGKIVYNSALKSRLTISKDTSKNQVVLTMTNMDPVDTATYYCAGDGYYPYAMDNWGQGSLVTVSSASTKGPSVFPLAPCSRSTSESTAALGCLVKDYFPEPVTVSWNSGALTSGVHTFPAVLQSSGLYSLSSVVTVPSSSLGTKTYTCNVDHKPSNTKVDKRVESKYGPPCPSCPAPEFLGGPSVFLFPPKPKDTLYITREPEVTCVVVDVSQEDPEVQFNWYVDGVEVHNAKTKPREEQFNSTYRVVSVLTVLHQDWLNGKEYKCKVSNKGLPSSIEKTISKAKGQPREPQVYTLPPSQEEMTKNQVSLTCLVKGFYPSDIAVEWESNGQPENNYKTTPPVLDSDGSFFLYSRLTVDKSRWQEGNVFSCSVMHEALHNHYTQKSLSLSLGK
light: DIVMTQSPDSLSVSLGERATINCRASKSVDSYGNSFMHWYQQKPGQPPKLLIYLASNLESGVPDRFSGSGSGTDFTLTISSLQAEDVAVYYCQQNNEDPRTFGGGTKVEIKRTVAAPSVFIFPPSDEQLKSGTASVVCLLNNFYPREAKVQWKVDNALQSGNSQESVTEQDSKDSTYSLSSTLTLSKADYEKHKVYACEVTHQGLSSPVTKSFNRGEC
notes: also called Lebrikizumab-HC; Lebrikizumab-LC
B2: Construct 144 (antibody, human IgG1, kappa, L234A L235A)
heavy: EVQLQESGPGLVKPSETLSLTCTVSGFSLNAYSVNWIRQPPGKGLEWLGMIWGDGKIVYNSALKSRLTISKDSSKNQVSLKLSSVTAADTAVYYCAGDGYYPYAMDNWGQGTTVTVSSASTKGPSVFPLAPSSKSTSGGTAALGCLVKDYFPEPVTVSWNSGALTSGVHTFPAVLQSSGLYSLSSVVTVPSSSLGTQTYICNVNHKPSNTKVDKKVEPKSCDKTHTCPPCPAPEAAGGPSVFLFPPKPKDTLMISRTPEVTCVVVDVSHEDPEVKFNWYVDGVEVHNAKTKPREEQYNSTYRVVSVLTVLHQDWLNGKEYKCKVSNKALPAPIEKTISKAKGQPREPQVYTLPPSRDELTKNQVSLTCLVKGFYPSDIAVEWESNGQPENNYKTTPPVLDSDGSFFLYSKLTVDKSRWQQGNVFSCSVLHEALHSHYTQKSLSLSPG
light: DIQLTQSPSSLSASVGDRVTITCRASKSVDSYGNSFMHWYQQKPGKAPKLLIYLASELESGVPSRFSGSGSGTDFTLTISSLQPEDFATYYCQQNNEDPRTFGGGTKVEIKRTVAAPSVFIFPPSDEQLKSGTASVVCLLNNFYPREAKVQWKVDNALQSGNSQESVTEQDSKDSTYSLSSTLTLSKADYEKHKVYACEVTHQGLSSPVTKSFNRGEC
notes: also called HC1; LC6_m8
B3: Construct 138 (antibody, human IgG4, kappa)
heavy: EVQLLESGGGLVQPGGSLRLSCAASGFSLNAYSVNWVRQAPGKGLEWLGMIWGDGKIVYNSALKSRLTISKDSSKNTVYLQMNSLRAEDTAVYYCAGDGYYPYAMDNWGQGTTVTVSSASTKGPSVFPLAPCSRSTSESTAALGCLVKDYFPEPVTVSWNSGALTSGVHTFPAVLQSSGLYSLSSVVTVPSSSLGTKTYTCNVDHKPSNTKVDKRVESKYGPPCPSCPAPEFLGGPSVFLFPPKPKDTLYITREPEVTCVVVDVSQEDPEVQFNWYVDGVEVHNAKTKPREEQFNSTYRVVSVLTVLHQDWLNGKEYKCKVSNKGLPSSIEKTISKAKGQPREPQVYTLPPSQEEMTKNQVSLTCLVKGFYPSDIAVEWESNGQPENNYKTTPPVLDSDGSFFLYSRLTVDKSRWQEGNVFSCSVMHEALHNHYTQKSLSLSLGK
light: B2 light
notes: also called HC5; LC6_m8
B4: Construct 143 (antibody, human IgG4, kappa)
heavy: EVQLQESGPGLVKPSETLSLTCTVSGFSLNAYSVNWIRQPPGKGLEWLGMIWGDGKIVYNSALKSRLTISKDSSKNQVSLKLSSVTAADTAVYYCAGDGYYPYAMDNWGQGTTVTVSSASTKGPSVFPLAPCSRSTSESTAALGCLVKDYFPEPVTVSWNSGALTSGVHTFPAVLQSSGLYSLSSVVTVPSSSLGTKTYTCNVDHKPSNTKVDKRVESKYGPPCPSCPAPEFLGGPSVFLFPPKPKDTLMISRTPEVTCVVVDVSQEDPEVQFNWYVDGVEVHNAKTKPREEQFNSTYRVVSVLTVLHQDWLNGKEYKCKVSNKGLPSSIEKTISKAKGQPREPQVYTLPPSQEEMTKNQVSLTCLVKGFYPSDIAVEWESNGQPENNYKTTPPVLDSDGSFFLYSRLTVDKSRWQEGNVFSCSVLHEALHSYTQKSLSLSLGK
light: B2 light
notes: also called HC1; LC6_m8
B5: Construct 139 (antibody, human IgG4, kappa)
heavy: EVQLLESGGGLVQPGGSLRLSCAASGFSLNAYSVNWVRQAPGKGLEWLGMIWGDGKIVYNSALKSRLTISKDSSKNTVYLQMNSLRAEDTAVYYCAGDGYYPYAMDNWGQGTTVTVSSASTKGPSVFPLAPCSRSTSESTAALGCLVKDYFPEPVTVSWNSGALTSGVHTFPAVLQSSGLYSLSSVVTVPSSSLGTKTYTCNVDHKPSNTKVDKRVESKYGPPCPSCPAPEFLGGPSVFLFPPKPKDTLMISRTPEVTCVVVDVSQEDPEVQFNWYVDGVEVHNAKTKPREEQFNSTYRVVSVLTVLHQDWLNGKEYKCKVSNKGLPSSIEKTISKAKGQPREPQVYTLPPSQEEMTKNQVSLTCLVKGFYPSDIAVEWESNGQPENNYKTTPPVLDSDGSFFLYSRLTVDKSRWQEGNVFSCSVLHEALHSYTQKSLSLSLGK
light: B2 light
notes: also called HC5; LC6_m8
B6: Construct 132 (antibody, human IgG1, kappa, L234A L235A)
heavy: EVQLLESGGGLVQPGGSLRLSCAASGFSLNAYSVNWVRQAPGKGLEWLGMIWGDGKIVYNSALKSRLTISKDSSKNTVYLQMNSLRAEDTAVYYCAGDGYYPYAMDNWGQGTTVTVSSASTKGPSVFPLAPSSKSTSGGTAALGCLVKDYFPEPVTVSWNSGALTSGVHTFPAVLQSSGLYSLSSVVTVPSSSLGTQTYICNVNHKPSNTKVDKKVEPKSCDKTHTCPPCPAPEAAGGPSVFLFPPKPKDTLYITREPEVTCVVVDVSHEDPEVKFNWYVDGVEVHNAKTKPREEQYNSTYRVVSVLTVLHQDWLNGKEYKCKVSNKALPAPIEKTISKAKGQPREPQVYTLPPSRDELTKNQVSLTCLVKGFYPSDIAVEWESNGQPENNYKTTPPVLDSDGSFFLYSKLTVDKSRWQQGNVFSCSVMHEALHNHYTQKSLSLSPG
light: B2 light with E57N
notes: also called HC5; LC6
B7: Construct 140 (antibody, human IgG1, kappa, L234A L235A)
heavy: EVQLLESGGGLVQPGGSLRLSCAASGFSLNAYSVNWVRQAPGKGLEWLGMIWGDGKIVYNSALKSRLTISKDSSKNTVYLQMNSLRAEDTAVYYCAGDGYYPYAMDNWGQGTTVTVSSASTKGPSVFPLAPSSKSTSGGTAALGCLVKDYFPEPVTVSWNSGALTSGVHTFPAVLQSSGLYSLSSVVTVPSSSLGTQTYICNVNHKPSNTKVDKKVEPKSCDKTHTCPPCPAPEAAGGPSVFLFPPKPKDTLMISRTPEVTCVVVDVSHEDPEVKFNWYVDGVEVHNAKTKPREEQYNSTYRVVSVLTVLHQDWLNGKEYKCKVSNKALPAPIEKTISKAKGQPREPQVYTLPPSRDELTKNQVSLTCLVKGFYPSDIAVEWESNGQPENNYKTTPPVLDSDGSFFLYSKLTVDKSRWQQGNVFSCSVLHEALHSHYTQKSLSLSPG
light: B2 light
notes: also called HC5; LC6_m8
B8: Tralokinumab (antibody, V domains shown)
VH: QVQLVQSGAEVKKPGASVKVSCKASGYTFTNYGLSWVRQAPGQGLEWMGWISANNGDTNYGQEFQGRVTMTTDTSTSTAYMELRSLRSDDTAVYYCARDSSSSWARWFFDLWGRGTLVTVSS
VL: SYVLTQPPSVSVAPGKTARITCGGNIIGSKLVHWYQQKPGQAPVLVIYDDGDRPSGIPERFSGSNSGNTATLTISRVEAGDEADYYCQVWDTGSDPVVFGGGTKLTVL

The values that follow come from patent US20250129150A1 (APOGEE THERAPEUTICS, published 2025).

Numbering of substitutions follows the chain as printed.

T2 sequence (P35225 other isoform, or with tags, fused parts or gaps limits assumed): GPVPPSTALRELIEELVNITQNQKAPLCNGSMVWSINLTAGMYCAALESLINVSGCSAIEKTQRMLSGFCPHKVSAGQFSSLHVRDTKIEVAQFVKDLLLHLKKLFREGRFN
biotinylated hIL-13, sequence (P35225 other isoform, or with tags, fused parts or gaps limits assumed): as above

The first assay addresses T2, hIL-13 (human, UniProt P35225 35-146, limits assumed). As to the kind of experiment: cell-based or functional assay.
B1: the “pSTAT6 Inhibition IC50 (HT-29 cells)” value amounted to 0.28 nM.
In the case of B2, the “pSTAT6 Inhibition IC50 (HT-29 cells)” value came to 0.3 nM.
For B3, the “pSTAT6 Inhibition IC50 (HT-29 cells)” value was 0.19 nM.
Regarding B4, the “pSTAT6 Inhibition IC50 (HT-29 cells)” value amounted to 0.36 nM.
The same measure, in the same setting: for B5 the value was 0.28 nM; for B6, 0.37 nM.
For the molecule B7, the “pSTAT6 Inhibition IC50 (HT-29 cells)” value stood at 0.33 nM.
For the molecule B8, the “pSTAT6 Inhibition IC50 (HT-29 cells)” value amounted to 0.41 nM.

The next assay deals with T1, Recombinant Cynomolgus IL-13 Protein, …. As to the kind of experiment: SPR (Biacore 8K), mAb captured on Protein G chip, IL-13 as analyte. The procedure:
(§1) Samples were injected in a multi-cycle manner over freshly captured mAb, by regenerating the capture surfaces with injection of glycine pH 1.5 for 30 sec at a flow rate of 30 μL/min. The data was processed and analyzed with Biacore Insight Evaluation Software Version 2.0.15.12933 (GE Healthcare) as follows. […] The responses from the two buffer blank injections were then subtracted from the reference subtracted data (2-1) to yield double-referenced data, which were fit to an 1:1 binding model to determine the apparent association (ka) and dissociation rate constants (kd). Their ratio provided the apparent equilibrium dissociation constant or affinity constant (KD=kd/ka).
One may read the Kd as the equilibrium constant for the complex coming apart. Turning to B1, the Kd amounted to 0.298 nM.
For B2, the Kd came to 0.228 nM.
In the case of B3, the dissociation constant (Kd) is 0.348 nM.
Consider B4, for which the Kd amounted to 0.685 nM.
Regarding B5, the dissociation constant Kd turned out to be 0.705 nM.
Same read-out and setting: as for B6, the figure is 0.331 nM; as for B7, 0.252 nM.
For the molecule B8, the Kd was 1.48 nM.

The target of the next assay is T3, Recombinant Human IL-13 Protein, His Tag (Acro Cat. IL3-H52H4) (human, UniProt P35225 35-146).
T3 construct: Bought protein; also called Hu IL-13; not shown: His Tag
T3 sequence (P35225 other isoform, or with tags, fused parts or gaps limits assumed): as above
The assay is described as above. The procedure:
as §1
With B1, the Kd is 0.0915 nM.
Turning to B2, the Kd is 0.0263 nM.
Consider B3, for which the equilibrium dissociation constant (Kd) is 0.108 nM.
B4: the Kd came out at 0.119 nM.
On the same count and under the same terms, as for B5, the figure is 0.114 nM.
B6: the Kd turned out to be 0.135 nM.
On the same count and under the same terms, as for B7, the figure is 0.0475 nM.
On to B8, for which the Kd came out at 0.116 nM.

For another assay, the target named is T2, hIL-13. As to the kind of experiment: ELISA. Background: ELISA stands for enzyme-linked immunosorbent assay.
B1 gave a Kd of 0.067 nM.
Consider B2, for which the Kd is 0.014 nM.
In turn, B7 showed a Kd of 0.02 nM.

A further assay deals with T2, hIL-13. As to the kind of experiment: cell-based or functional assay. The source holds these as a separate data set.
With B1, the “TF-1 Proliferation Inhibition IC50” value came out at 0.2 nM.
Take B2: the “TF-1 Proliferation Inhibition IC50” value stood at 0.17 nM.
On to B3, for which the “TF-1 Proliferation Inhibition IC50” value stood at 0.23 nM.
For B4, the “TF-1 Proliferation Inhibition IC50” value came to 0.17 nM.
B5: the “TF-1 Proliferation Inhibition IC50” value came out at 0.2 nM.
As for B6, the “TF-1 Proliferation Inhibition IC50” value was found to be 0.13 nM.
For the molecule B7, the “TF-1 Proliferation Inhibition IC50” value is 0.14 nM.
For the molecule B8, the “TF-1 Proliferation Inhibition IC50” value was 0.59 nM.

The next assay has as its target biotinylated hIL-13 (human, UniProt P35225 35-146, limits assumed, biotinylated (site not stated)). As to the kind of experiment: FACS; blockade of biotinylated hIL-13 (0.05 ug/mL) binding to HEK293 cells expressing hIL-13Rα1/hIL-4Rα. The procedure: Briefly, HEK293 previously transduced to stably express both hIL-13Rα and hIL-4Rα were cultured and harvested. Cells were seeded at 200,000 cells in 100 uL per well. Cells were washed and the supernatant was discarded. […] The cells were stained in this mixture at 4° C. for 1 hour. […] Cells were incubated at 4° C. for 1 hour, protected from light. Cells were then washed and the median fluorescence intensity (MFI) of cells in each well were recorded by FACS using a BD FACSCanto II. Subsequent data were analyzed using GraphPad Prism.
In general, IC50 refers to the midpoint of a concentration-inhibition curve. Molecule B1 showed an IC50 of 0.95 nM.
B2 gave an IC50 of 0.94 nM.
B3 had an IC50 of 1.01 nM.
The molecule B4 registered an IC50 of 0.74 nM.
As for B5, the IC50 stood at 1.09 nM.
B6 returned an IC50 of 0.99 nM.

The next assay deals with T2, hIL-13. As to the kind of experiment: cell-based or functional assay. The source holds these as a separate data set.
With B1, the “TARC Inhibition IC50 (A549 cells)” value was determined as 1.01 nM.
As for B2, the “TARC Inhibition IC50 (A549 cells)” value was determined as 0.91 nM.
Consider B3, for which the “TARC Inhibition IC50 (A549 cells)” value worked out at 0.97 nM.
On the same count and under the same terms, for B4 the value was 0.92 nM; for B5, 1.02 nM.
Take B6: the “TARC Inhibition IC50 (A549 cells)” value is 0.87 nM.
On to B7, for which the “TARC Inhibition IC50 (A549 cells)” value came out at 0.94 nM.
For the molecule B8, the “TARC Inhibition IC50 (A549 cells)” value amounted to 4.14 nM.
